In the RNAGym collection of RNA variant scans (doi:10.1021/acssynbio.7b00057):

B1: Pistol ribozyme (parent)
chain: GGGUCGUUGUUCCAUAAUCGCGUGGAUAUGGCACGCAAGUUUCUACCGGGCACCGUAAAUGUCCGACUGGAGCCGUUCGGGCGGCUAUAAACAGACCUCAGGCCCGAAGCGUGGCGGCACCUGCCGCCGGUGGUAAAAAAGAUCGGAAGAGCACACGUCU

Variants of: B1
Assay: aptazyme ON/OFF ratio, guanine; higher = stronger switching; co-transcriptional cleavage with and without guanine

Variant | aptazyme ON/OFF ratio
GGGUCGGGGGCGCAUAAUCGCGUGGAUAUGGCACGCAAGUUUCUACCGGGCACCGUAAAUGUCCGACUGGAGCCGUUCGGGCGGCUAUAAACAGACCUCAGGCCCGAAGCGUGGCGGCACCUGCCGCCGGUGGUAAAAAAGAUCGGAAGAGCACACGUCU [U7G U8G U10G U11C C12G] | 1.29
GGGUCGCAAGUAUAUAAUCGCGUGGAUAUGGCACGCAAGUUUCUACCGGGCACCGUAAAUGUCCGACUGGAGCCGUUCGGGCGGCUAUAAACAGACCUCAGGCCCGAAGCGUGGCGGCACCUGCCGCCGGUGGUAAAAAAGAUCGGAAGAGCACACGUCU [U7C U8A G9A U10G C12A C13U] | 1.25
GGGUCGCCCGGCAAUAAUCGCGUGGAUAUGGCACGCAAGUUUCUACCGGGCACCGUAAAUGUCCGACUGGAGCCGUUCGGGCGGCUAUAAACAGACCUCAGGCCCGAAGCGUGGCGGCACCUGCCGCCGGUGGUAAAAAAGAUCGGAAGAGCACACGUCU [U7C U8C G9C U10G U11G C13A] | 1.06
GGGUCGCGGGUGCAUAAUCGCGUGGAUAUGGCACGCAAGUUUCUACCGGGCACCGUAAAUGUCCGACUGGAGCCGUUCGGGCGGCUAUAAACAGACCUCAGGCCCGAAGCGUGGCGGCACCUGCCGCCGGUGGUAAAAAAGAUCGGAAGAGCACACGUCU [U7C U8G U10G C12G] | 1.36
GGGUCGGCUAGCGAUAAUCGCGUGGAUAUGGCACGCAAGUUUCUACCGGGCACCGUAAAUGUCCGACUGGAGCCGUUCGGGCGGCUAUAAACAGACCUCAGGCCCGAAGCGUGGCGGCACCUGCCGCCGGUGGUAAAAAAGAUCGGAAGAGCACACGUCU [U7G U8C G9U U10A U11G C13G] | 1.1
GGGUCGAUAGCGGAUAAUCGCGUGGAUAUGGCACGCAAGUUUCUACCGGGCACCGUAAAUGUCCGACUGGAGCCGUUCGGGCGGCUAUAAACAGACCUCAGGCCCGAAGCGUGGCGGCACCUGCCGCCGGUGGUAAAAAAGAUCGGAAGAGCACACGUCU [U7A G9A U10G U11C C12G C13G] | 1.18
GGGUCGGCUAAAGAUAAUCGCGUGGAUAUGGCACGCAAGUUUCUACCGGGCACCGUAAAUGUCCGACUGGAGCCGUUCGGGCGGCUAUAAACAGACCUCAGGCCCGAAGCGUGGCGGCACCUGCCGCCGGUGGUAAAAAAGAUCGGAAGAGCACACGUCU [U7G U8C G9U U10A U11A C12A C13G] | 1.11
GGGUCGCACGCGUAUAAUCGCGUGGAUAUGGCACGCAAGUUUCUACCGGGCACCGUAAAUGUCCGACUGGAGCCGUUCGGGCGGCUAUAAACAGACCUCAGGCCCGAAGCGUGGCGGCACCUGCCGCCGGUGGUAAAAAAGAUCGGAAGAGCACACGUCU [U7C U8A G9C U10G U11C C12G C13U] | 1.19
GGGUCGGGAGAGAAUAAUCGCGUGGAUAUGGCACGCAAGUUUCUACCGGGCACCGUAAAUGUCCGACUGGAGCCGUUCGGGCGGCUAUAAACAGACCUCAGGCCCGAAGCGUGGCGGCACCUGCCGCCGGUGGUAAAAAAGAUCGGAAGAGCACACGUCU [U7G U8G G9A U10G U11A C12G C13A] | 1.13
GGGUCGGGCCAACAUAAUCGCGUGGAUAUGGCACGCAAGUUUCUACCGGGCACCGUAAAUGUCCGACUGGAGCCGUUCGGGCGGCUAUAAACAGACCUCAGGCCCGAAGCGUGGCGGCACCUGCCGCCGGUGGUAAAAAAGAUCGGAAGAGCACACGUCU [U7G U8G G9C U10C U11A C12A] | 1.3
GGGUCGCUUCGUGAUAAUCGCGUGGAUAUGGCACGCAAGUUUCUACCGGGCACCGUAAAUGUCCGACUGGAGCCGUUCGGGCGGCUAUAAACAGACCUCAGGCCCGAAGCGUGGCGGCACCUGCCGCCGGUGGUAAAAAAGAUCGGAAGAGCACACGUCU [U7C G9U U10C U11G C12U C13G] | 1.15
GGGUCGGCUCCGUAUAAUCGCGUGGAUAUGGCACGCAAGUUUCUACCGGGCACCGUAAAUGUCCGACUGGAGCCGUUCGGGCGGCUAUAAACAGACCUCAGGCCCGAAGCGUGGCGGCACCUGCCGCCGGUGGUAAAAAAGAUCGGAAGAGCACACGUCU [U7G U8C G9U U10C U11C C12G C13U] | 1.22
GGGUCGCCGUUCAAUAAUCGCGUGGAUAUGGCACGCAAGUUUCUACCGGGCACCGUAAAUGUCCGACUGGAGCCGUUCGGGCGGCUAUAAACAGACCUCAGGCCCGAAGCGUGGCGGCACCUGCCGCCGGUGGUAAAAAAGAUCGGAAGAGCACACGUCU [U7C U8C C13A] | 1.21
GGGUCGAAUCACCAUAAUCGCGUGGAUAUGGCACGCAAGUUUCUACCGGGCACCGUAAAUGUCCGACUGGAGCCGUUCGGGCGGCUAUAAACAGACCUCAGGCCCGAAGCGUGGCGGCACCUGCCGCCGGUGGUAAAAAAGAUCGGAAGAGCACACGUCU [U7A U8A G9U U10C U11A] | 1.29
GGGUCGGGGGUUAAUAAUCGCGUGGAUAUGGCACGCAAGUUUCUACCGGGCACCGUAAAUGUCCGACUGGAGCCGUUCGGGCGGCUAUAAACAGACCUCAGGCCCGAAGCGUGGCGGCACCUGCCGCCGGUGGUAAAAAAGAUCGGAAGAGCACACGUCU [U7G U8G U10G C12U C13A] | 1
GGGUCGAGGCGUCAUAAUCGCGUGGAUAUGGCACGCAAGUUUCUACCGGGCACCGUAAAUGUCCGACUGGAGCCGUUCGGGCGGCUAUAAACAGACCUCAGGCCCGAAGCGUGGCGGCACCUGCCGCCGGUGGUAAAAAAGAUCGGAAGAGCACACGUCU [U7A U8G U10C U11G C12U] | 1.29
GGGUCGCAUGCACAUAAUCGCGUGGAUAUGGCACGCAAGUUUCUACCGGGCACCGUAAAUGUCCGACUGGAGCCGUUCGGGCGGCUAUAAACAGACCUCAGGCCCGAAGCGUGGCGGCACCUGCCGCCGGUGGUAAAAAAGAUCGGAAGAGCACACGUCU [U7C U8A G9U U10G U11C C12A] | 1.21
GGGUCGAUGCAAGAUAAUCGCGUGGAUAUGGCACGCAAGUUUCUACCGGGCACCGUAAAUGUCCGACUGGAGCCGUUCGGGCGGCUAUAAACAGACCUCAGGCCCGAAGCGUGGCGGCACCUGCCGCCGGUGGUAAAAAAGAUCGGAAGAGCACACGUCU [U7A U10C U11A C12A C13G] | 1.23

Variant | aptazyme ON/OFF ratio
GGGUCGGCUUCAAAUAAUCGCGUGGAUAUGGCACGCAAGUUUCUACCGGGCACCGUAAAUGUCCGACUGGAGCCGUUCGGGCGGCUAUAAACAGACCUCAGGCCCGAAGCGUGGCGGCACCUGCCGCCGGUGGUAAAAAAGAUCGGAAGAGCACACGUCU [U7G U8C G9U U11C C12A C13A] | 1.36
GGGUCGUUACCGGAUAAUCGCGUGGAUAUGGCACGCAAGUUUCUACCGGGCACCGUAAAUGUCCGACUGGAGCCGUUCGGGCGGCUAUAAACAGACCUCAGGCCCGAAGCGUGGCGGCACCUGCCGCCGGUGGUAAAAAAGAUCGGAAGAGCACACGUCU [G9A U10C U11C C12G C13G] | 1.2
GGGUCGAGACUGCAUAAUCGCGUGGAUAUGGCACGCAAGUUUCUACCGGGCACCGUAAAUGUCCGACUGGAGCCGUUCGGGCGGCUAUAAACAGACCUCAGGCCCGAAGCGUGGCGGCACCUGCCGCCGGUGGUAAAAAAGAUCGGAAGAGCACACGUCU [U7A U8G G9A U10C C12G] | 1.35
GGGUCGCAAGGAGAUAAUCGCGUGGAUAUGGCACGCAAGUUUCUACCGGGCACCGUAAAUGUCCGACUGGAGCCGUUCGGGCGGCUAUAAACAGACCUCAGGCCCGAAGCGUGGCGGCACCUGCCGCCGGUGGUAAAAAAGAUCGGAAGAGCACACGUCU [U7C U8A G9A U10G U11G C12A C13G] | 1.14
GGGUCGGUCUACCAUAAUCGCGUGGAUAUGGCACGCAAGUUUCUACCGGGCACCGUAAAUGUCCGACUGGAGCCGUUCGGGCGGCUAUAAACAGACCUCAGGCCCGAAGCGUGGCGGCACCUGCCGCCGGUGGUAAAAAAGAUCGGAAGAGCACACGUCU [U7G G9C U11A] | 2.57
GGGUCGGGAGGGGAUAAUCGCGUGGAUAUGGCACGCAAGUUUCUACCGGGCACCGUAAAUGUCCGACUGGAGCCGUUCGGGCGGCUAUAAACAGACCUCAGGCCCGAAGCGUGGCGGCACCUGCCGCCGGUGGUAAAAAAGAUCGGAAGAGCACACGUCU [U7G U8G G9A U10G U11G C12G C13G] | 1.25
GGGUCGAAAUUGGAUAAUCGCGUGGAUAUGGCACGCAAGUUUCUACCGGGCACCGUAAAUGUCCGACUGGAGCCGUUCGGGCGGCUAUAAACAGACCUCAGGCCCGAAGCGUGGCGGCACCUGCCGCCGGUGGUAAAAAAGAUCGGAAGAGCACACGUCU [U7A U8A G9A C12G C13G] | 1.12
GGGUCGCAGCCACAUAAUCGCGUGGAUAUGGCACGCAAGUUUCUACCGGGCACCGUAAAUGUCCGACUGGAGCCGUUCGGGCGGCUAUAAACAGACCUCAGGCCCGAAGCGUGGCGGCACCUGCCGCCGGUGGUAAAAAAGAUCGGAAGAGCACACGUCU [U7C U8A U10C U11C C12A] | 1.17
GGGUCGUCGAAGGAUAAUCGCGUGGAUAUGGCACGCAAGUUUCUACCGGGCACCGUAAAUGUCCGACUGGAGCCGUUCGGGCGGCUAUAAACAGACCUCAGGCCCGAAGCGUGGCGGCACCUGCCGCCGGUGGUAAAAAAGAUCGGAAGAGCACACGUCU [U8C U10A U11A C12G C13G] | 1.35
GGGUCGUCAUCGGAUAAUCGCGUGGAUAUGGCACGCAAGUUUCUACCGGGCACCGUAAAUGUCCGACUGGAGCCGUUCGGGCGGCUAUAAACAGACCUCAGGCCCGAAGCGUGGCGGCACCUGCCGCCGGUGGUAAAAAAGAUCGGAAGAGCACACGUCU [U8C G9A U11C C12G C13G] | 1.26
GGGUCGAGAAUAGAUAAUCGCGUGGAUAUGGCACGCAAGUUUCUACCGGGCACCGUAAAUGUCCGACUGGAGCCGUUCGGGCGGCUAUAAACAGACCUCAGGCCCGAAGCGUGGCGGCACCUGCCGCCGGUGGUAAAAAAGAUCGGAAGAGCACACGUCU [U7A U8G G9A U10A C12A C13G] | 1.06
GGGUCGAAACUGCAUAAUCGCGUGGAUAUGGCACGCAAGUUUCUACCGGGCACCGUAAAUGUCCGACUGGAGCCGUUCGGGCGGCUAUAAACAGACCUCAGGCCCGAAGCGUGGCGGCACCUGCCGCCGGUGGUAAAAAAGAUCGGAAGAGCACACGUCU [U7A U8A G9A U10C C12G] | 1.05
GGGUCGCUCGAUGAUAAUCGCGUGGAUAUGGCACGCAAGUUUCUACCGGGCACCGUAAAUGUCCGACUGGAGCCGUUCGGGCGGCUAUAAACAGACCUCAGGCCCGAAGCGUGGCGGCACCUGCCGCCGGUGGUAAAAAAGAUCGGAAGAGCACACGUCU [U7C G9C U10G U11A C12U C13G] | 1.05
GGGUCGUGGAGACAUAAUCGCGUGGAUAUGGCACGCAAGUUUCUACCGGGCACCGUAAAUGUCCGACUGGAGCCGUUCGGGCGGCUAUAAACAGACCUCAGGCCCGAAGCGUGGCGGCACCUGCCGCCGGUGGUAAAAAAGAUCGGAAGAGCACACGUCU [U8G U10A U11G C12A] | 1.12
GGGUCGACCAAGAAUAAUCGCGUGGAUAUGGCACGCAAGUUUCUACCGGGCACCGUAAAUGUCCGACUGGAGCCGUUCGGGCGGCUAUAAACAGACCUCAGGCCCGAAGCGUGGCGGCACCUGCCGCCGGUGGUAAAAAAGAUCGGAAGAGCACACGUCU [U7A U8C G9C U10A U11A C12G C13A] | 1.05
GGGUCGGCCGAUAAUAAUCGCGUGGAUAUGGCACGCAAGUUUCUACCGGGCACCGUAAAUGUCCGACUGGAGCCGUUCGGGCGGCUAUAAACAGACCUCAGGCCCGAAGCGUGGCGGCACCUGCCGCCGGUGGUAAAAAAGAUCGGAAGAGCACACGUCU [U7G U8C G9C U10G U11A C12U C13A] | 1.03
GGGUCGCCAGGGUAUAAUCGCGUGGAUAUGGCACGCAAGUUUCUACCGGGCACCGUAAAUGUCCGACUGGAGCCGUUCGGGCGGCUAUAAACAGACCUCAGGCCCGAAGCGUGGCGGCACCUGCCGCCGGUGGUAAAAAAGAUCGGAAGAGCACACGUCU [U7C U8C G9A U10G U11G C12G C13U] | 1.11
GGGUCGACAUCUCAUAAUCGCGUGGAUAUGGCACGCAAGUUUCUACCGGGCACCGUAAAUGUCCGACUGGAGCCGUUCGGGCGGCUAUAAACAGACCUCAGGCCCGAAGCGUGGCGGCACCUGCCGCCGGUGGUAAAAAAGAUCGGAAGAGCACACGUCU [U7A U8C G9A U11C C12U] | 1.14
